# In article PMC4827060:
# Key:
# Experiment in all cases: SPR; IgG amine-coupled to CM5 chip (Biacore 3000); GST-ABD or GST at 54, 108, 216 and 432 nM, 10 μl/min for 7 min; 25 °C; PBS running buffer; 1:1 Langmuir model
# Mouse IgG (mouse) = biological target: Mouse IgG (mouse)
# Rabbit IgG (rabbit) = biological target: Rabbit IgG (rabbit)
# Rat IgG (rat) = biological target: Rat IgG (rat)
substance,measurement,setting,value
GST-ABD (recombinant secondary antibody mimic; glutathione-S-transferase fused through a linker to the antibody-binding domain of protein A) (domain or fragment),Ka,Mouse IgG (mouse),5.9e+07 M⁻¹
same,Kd,Mouse IgG (mouse),16.8 nM
same,koff,Mouse IgG (mouse),0.00107 s⁻¹
same,kon,Mouse IgG (mouse),63800 M⁻¹ s⁻¹
same,Ka,Rabbit IgG (rabbit),7.6e+08 M⁻¹
same,Kd,Rabbit IgG (rabbit),1.31 nM
same,koff,Rabbit IgG (rabbit),9e-05 s⁻¹
same,kon,Rabbit IgG (rabbit),66600 M⁻¹ s⁻¹
same,Ka,Rat IgG (rat),2.3e+08 M⁻¹
same,Kd,Rat IgG (rat),4.34 nM
same,koff,Rat IgG (rat),0.00022 s⁻¹
same,kon,Rat IgG (rat),51800 M⁻¹ s⁻¹
